Data reported in the supplement of paper PMC10065799, “High-throughput profiling of sequence recognition by tyrosine kinases and SH2 domains using bacterial peptide display” (eLife, 2023).

Columns and labels:
c-Src SH2 = test: SH2 binding enrichment of the phosphorylated peptide, bacterial display (enrichment ratio); higher = better substrate or ligand; peptides without Tyr show the background
SHP2-C SH2 = test: as above
Grb2 SH2 = Grb2 SH2 (UniProt P62993); test: as above
c-Abl (mouse) = test: phosphorylation enrichment, bacterial display (enrichment ratio); higher = better substrate or ligand; peptides without Tyr show the background
Fyn = Fyn (UniProt P06241); test: as above
Fer (mouse) = test: as above
FGFR3 = FGFR3 (UniProt P22607); test: as above
Jak2 = Jak2 (UniProt O60674); test: as above
AncSZ = test: as above
Fes = Fes (UniProt P07332); test: as above
EPHB1 = EPHB1 (UniProt P54762); test: as above
Hck = Hck (UniProt P08631); test: as above
c-Src = test: as above
EPHB2 = EPHB2 (UniProt P29323); test: as above
MERTK = MERTK (UniProt Q12866); test: as above
FGFR1 = FGFR1 (UniProt P11362); test: as above
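Wherever SH2 binding enrichment of the phosphorylated peptide, bacterial display is given: peptide library displayed on the E. coli surface as eCPX fusions, selected cells deep-sequenced, score is each peptide's frequency after selection divided by its frequency in the input.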
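Wherever phosphorylation enrichment, bacterial display is given: 11-residue human phosphosite peptides and single-mutation variants displayed on the E. coli surface, counted by deep sequencing, each peptide's frequency after selection divided by its frequency in the unselected input library; frequency after pTyr selection over input frequency; kinase dosed for 20-30% of maximal phosphorylation in three min.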

Fyn, sequence (P06241 whole entry, looked up): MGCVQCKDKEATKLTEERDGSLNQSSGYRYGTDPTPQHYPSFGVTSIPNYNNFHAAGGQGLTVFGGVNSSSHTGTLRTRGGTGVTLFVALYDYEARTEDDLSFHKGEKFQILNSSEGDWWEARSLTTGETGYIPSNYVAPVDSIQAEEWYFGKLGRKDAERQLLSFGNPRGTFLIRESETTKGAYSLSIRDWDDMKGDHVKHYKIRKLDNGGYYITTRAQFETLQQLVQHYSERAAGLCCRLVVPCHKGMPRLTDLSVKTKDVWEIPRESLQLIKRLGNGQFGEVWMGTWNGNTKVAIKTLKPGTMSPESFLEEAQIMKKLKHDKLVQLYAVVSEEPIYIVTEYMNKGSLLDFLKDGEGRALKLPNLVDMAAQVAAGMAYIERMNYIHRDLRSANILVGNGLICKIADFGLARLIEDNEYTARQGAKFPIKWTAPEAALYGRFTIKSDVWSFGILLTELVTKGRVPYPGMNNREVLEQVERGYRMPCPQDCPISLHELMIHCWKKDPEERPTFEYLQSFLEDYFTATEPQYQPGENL
Grb2 SH2, sequence (P62993 whole entry, looked up): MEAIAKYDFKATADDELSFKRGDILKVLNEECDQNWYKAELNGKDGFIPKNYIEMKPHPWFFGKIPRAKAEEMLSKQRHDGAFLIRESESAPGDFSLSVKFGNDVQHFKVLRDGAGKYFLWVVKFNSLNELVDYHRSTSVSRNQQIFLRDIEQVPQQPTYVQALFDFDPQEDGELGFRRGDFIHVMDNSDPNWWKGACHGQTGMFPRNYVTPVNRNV
EPHB1, sequence (P54762 whole entry, looked up): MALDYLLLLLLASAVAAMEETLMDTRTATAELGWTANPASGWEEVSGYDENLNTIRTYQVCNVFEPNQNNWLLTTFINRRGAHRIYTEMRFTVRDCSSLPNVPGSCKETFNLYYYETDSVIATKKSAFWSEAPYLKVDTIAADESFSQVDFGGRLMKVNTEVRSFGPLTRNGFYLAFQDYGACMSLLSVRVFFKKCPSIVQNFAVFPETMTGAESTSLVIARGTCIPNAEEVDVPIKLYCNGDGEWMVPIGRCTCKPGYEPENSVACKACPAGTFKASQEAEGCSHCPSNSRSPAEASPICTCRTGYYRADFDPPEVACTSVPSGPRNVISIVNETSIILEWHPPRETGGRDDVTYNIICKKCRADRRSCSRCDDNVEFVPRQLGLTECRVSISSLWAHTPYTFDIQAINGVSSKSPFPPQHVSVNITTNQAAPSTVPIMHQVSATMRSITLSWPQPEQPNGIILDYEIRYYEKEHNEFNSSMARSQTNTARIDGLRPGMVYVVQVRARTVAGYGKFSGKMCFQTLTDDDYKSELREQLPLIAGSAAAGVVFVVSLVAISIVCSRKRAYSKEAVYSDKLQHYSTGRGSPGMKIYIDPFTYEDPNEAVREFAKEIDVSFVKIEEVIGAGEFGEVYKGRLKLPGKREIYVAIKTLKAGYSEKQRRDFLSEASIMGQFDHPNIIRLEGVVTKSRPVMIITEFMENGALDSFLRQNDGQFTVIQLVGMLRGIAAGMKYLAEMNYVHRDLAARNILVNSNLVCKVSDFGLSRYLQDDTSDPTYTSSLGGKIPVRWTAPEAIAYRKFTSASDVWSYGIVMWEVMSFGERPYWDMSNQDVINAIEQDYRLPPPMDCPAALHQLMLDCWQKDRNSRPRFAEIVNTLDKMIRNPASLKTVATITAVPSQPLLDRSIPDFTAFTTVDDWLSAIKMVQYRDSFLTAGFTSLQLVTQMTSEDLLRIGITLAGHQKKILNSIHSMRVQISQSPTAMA
Jak2, sequence (O60674 whole entry, looked up): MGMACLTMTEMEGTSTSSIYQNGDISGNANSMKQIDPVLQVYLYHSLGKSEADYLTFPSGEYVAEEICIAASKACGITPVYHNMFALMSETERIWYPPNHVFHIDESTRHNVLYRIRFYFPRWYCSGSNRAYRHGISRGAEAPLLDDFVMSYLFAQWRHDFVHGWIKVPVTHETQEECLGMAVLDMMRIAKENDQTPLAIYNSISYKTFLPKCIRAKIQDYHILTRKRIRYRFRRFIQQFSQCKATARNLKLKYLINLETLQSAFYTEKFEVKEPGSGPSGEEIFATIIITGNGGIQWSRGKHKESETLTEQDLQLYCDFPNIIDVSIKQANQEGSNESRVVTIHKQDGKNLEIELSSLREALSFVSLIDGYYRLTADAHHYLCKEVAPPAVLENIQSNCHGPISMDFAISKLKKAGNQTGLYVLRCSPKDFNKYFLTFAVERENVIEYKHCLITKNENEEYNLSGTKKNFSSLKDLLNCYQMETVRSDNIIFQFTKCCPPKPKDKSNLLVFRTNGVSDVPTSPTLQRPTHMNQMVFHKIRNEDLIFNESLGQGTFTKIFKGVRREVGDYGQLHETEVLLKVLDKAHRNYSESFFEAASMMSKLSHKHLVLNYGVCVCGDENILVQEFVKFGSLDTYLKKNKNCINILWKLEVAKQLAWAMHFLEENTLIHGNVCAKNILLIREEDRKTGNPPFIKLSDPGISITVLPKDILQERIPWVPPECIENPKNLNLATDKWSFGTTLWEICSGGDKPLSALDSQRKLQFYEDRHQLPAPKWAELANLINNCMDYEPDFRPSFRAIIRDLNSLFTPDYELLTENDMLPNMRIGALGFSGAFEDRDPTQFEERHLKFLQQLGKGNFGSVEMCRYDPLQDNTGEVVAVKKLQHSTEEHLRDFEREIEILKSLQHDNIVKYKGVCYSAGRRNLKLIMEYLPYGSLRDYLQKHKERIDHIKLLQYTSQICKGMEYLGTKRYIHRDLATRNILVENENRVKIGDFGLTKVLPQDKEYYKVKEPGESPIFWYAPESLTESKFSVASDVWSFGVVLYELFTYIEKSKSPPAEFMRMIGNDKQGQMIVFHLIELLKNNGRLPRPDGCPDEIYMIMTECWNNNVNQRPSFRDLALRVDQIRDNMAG
FGFR3, sequence (P22607 whole entry, looked up): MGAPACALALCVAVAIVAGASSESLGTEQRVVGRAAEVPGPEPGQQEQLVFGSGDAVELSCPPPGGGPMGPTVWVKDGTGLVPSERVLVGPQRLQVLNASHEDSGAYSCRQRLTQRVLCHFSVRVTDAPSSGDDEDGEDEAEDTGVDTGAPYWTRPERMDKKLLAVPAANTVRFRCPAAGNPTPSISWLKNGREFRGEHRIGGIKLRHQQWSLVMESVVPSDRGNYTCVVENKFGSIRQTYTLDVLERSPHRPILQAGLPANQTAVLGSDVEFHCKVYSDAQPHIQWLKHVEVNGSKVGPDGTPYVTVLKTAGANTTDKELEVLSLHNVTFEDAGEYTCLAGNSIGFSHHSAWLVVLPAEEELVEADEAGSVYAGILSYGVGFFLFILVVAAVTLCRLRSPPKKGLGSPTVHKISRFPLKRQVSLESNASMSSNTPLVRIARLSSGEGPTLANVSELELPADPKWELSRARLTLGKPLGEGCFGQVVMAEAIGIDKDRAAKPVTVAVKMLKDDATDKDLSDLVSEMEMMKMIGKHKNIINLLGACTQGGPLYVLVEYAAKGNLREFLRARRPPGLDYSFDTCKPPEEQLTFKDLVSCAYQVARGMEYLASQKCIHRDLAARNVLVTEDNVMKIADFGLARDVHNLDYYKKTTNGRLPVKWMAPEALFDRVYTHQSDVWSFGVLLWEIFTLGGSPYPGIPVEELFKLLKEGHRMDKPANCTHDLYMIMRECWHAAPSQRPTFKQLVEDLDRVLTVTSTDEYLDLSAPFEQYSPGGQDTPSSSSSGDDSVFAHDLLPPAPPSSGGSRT
MERTK, sequence (Q12866 whole entry, looked up): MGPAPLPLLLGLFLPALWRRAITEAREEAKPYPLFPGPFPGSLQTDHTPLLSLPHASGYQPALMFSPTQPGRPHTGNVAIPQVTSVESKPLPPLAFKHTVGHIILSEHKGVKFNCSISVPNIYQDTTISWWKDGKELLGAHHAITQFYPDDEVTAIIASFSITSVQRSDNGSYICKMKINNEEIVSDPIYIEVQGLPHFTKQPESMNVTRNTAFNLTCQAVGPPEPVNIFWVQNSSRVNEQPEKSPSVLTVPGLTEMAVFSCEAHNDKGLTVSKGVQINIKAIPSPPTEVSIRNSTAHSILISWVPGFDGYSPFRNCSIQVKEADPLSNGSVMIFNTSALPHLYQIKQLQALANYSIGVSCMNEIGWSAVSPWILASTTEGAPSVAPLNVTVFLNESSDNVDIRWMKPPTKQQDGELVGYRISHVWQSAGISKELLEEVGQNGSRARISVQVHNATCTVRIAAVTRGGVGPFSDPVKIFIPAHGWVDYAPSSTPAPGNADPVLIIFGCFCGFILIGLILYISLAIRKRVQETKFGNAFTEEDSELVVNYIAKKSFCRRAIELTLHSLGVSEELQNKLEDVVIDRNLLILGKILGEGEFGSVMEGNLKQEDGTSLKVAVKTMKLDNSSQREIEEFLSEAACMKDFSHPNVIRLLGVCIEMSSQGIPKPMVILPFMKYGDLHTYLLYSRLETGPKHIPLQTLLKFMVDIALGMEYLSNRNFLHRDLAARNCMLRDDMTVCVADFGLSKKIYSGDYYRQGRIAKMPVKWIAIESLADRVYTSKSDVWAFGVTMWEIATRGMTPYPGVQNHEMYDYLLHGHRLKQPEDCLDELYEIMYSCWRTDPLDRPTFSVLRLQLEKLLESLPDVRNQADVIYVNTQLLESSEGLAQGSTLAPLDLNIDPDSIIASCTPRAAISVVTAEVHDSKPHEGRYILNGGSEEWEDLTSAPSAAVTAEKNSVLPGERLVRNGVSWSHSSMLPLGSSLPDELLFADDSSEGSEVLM

Sequence | SH2 binding enrichment (c-Src SH2) | SH2 binding enrichment (SHP2-C SH2) | SH2 binding enrichment (Grb2 SH2) | phosphorylation enrichment (c-Abl (mouse)) | phosphorylation enrichment (Fyn) | phosphorylation enrichment (Fer (mouse)) | phosphorylation enrichment (FGFR3) | phosphorylation enrichment (Jak2) | phosphorylation enrichment (AncSZ) | phosphorylation enrichment (Fes) | phosphorylation enrichment (EPHB1) | phosphorylation enrichment (Hck) | phosphorylation enrichment (c-Src) | phosphorylation enrichment (EPHB2) | phosphorylation enrichment (MERTK) | phosphorylation enrichment (FGFR1)
ETELPYQELQG [TYROBP_Y91_S89L] | 0.84 | 0.504 | 0.727 | 0.872 | 0.737 | 0.997 | 1.5 | 1.02 | 1.58 | 1.18 | 0.535 | 0.941 | 2.5 | 0.58 | 0.566 | 1.65
EVKEAYMGSVL [ACAT1_Y90_N93S] | 0.452 | 0.671 | 0.883 | 0.744 | 0.489 | 0.398 | 0.527 | 0.83 | 0.841 | 0.995 | 0.485 | 0.447 | 0.592 | 0.532 | 0.463 | 0.407
EWLRRYLENGK [HLA-A_Y195] | 0.522 | 0.757 | 0.932 | 0.581 | 0.346 | 0.36 | 0.498 | 0.661 | 0.691 | 0.809 | 0.386 | 0.387 | 0.346 | 0.456 | 0.328 | 0.42
EWRSPYGLTPR [GRIN3B_Y601] | 0.645 | 0.766 | 1.3 | 0.486 | 0.657 | 0.434 | 0.442 | 0.459 | 0.569 | 0.636 | 0.413 | 0.474 | 1.28 | 0.473 | 0.484 | 0.403
EYFDGYWGYSV [ITGA2B_Y265] | 1.94 | 0.578 | 0.999 | 4.7 | 6.24 | 1.4 | 13.7 | 12.3 | 3.58 | 1.42 | 3.88 | 5.55 | 7.52 | 9.3 | 2.87 | 14.6
EYKDAYKFAAD [BRDT_Y335] | 0.864 | 0.572 | 0.861 | 0.666 | 0.499 | 0.559 | 0.632 | 0.722 | 0.984 | 1.14 | 0.59 | 0.542 | 0.495 | 0.553 | 0.475 | 0.511
FADIAYIFRHG [PAH_Y166_N167I_YF] | 0.659 | 0.796 | 0.756 | 0.579 | 0.508 | 0.507 | 0.626 | 0.97 | 0.908 | 1.03 | 0.715 | 0.449 | 0.415 | 0.487 | 0.458 | 0.637
FADIAYSFRHG [PAH_Y166_N167S_YF] | 0.673 | 1.15 | 0.749 | 0.463 | 0.443 | 0.393 | 0.491 | 0.422 | 0.62 | 0.674 | 0.344 | 0.44 | 0.64 | 0.383 | 0.33 | 0.313
FCRHNYGAVES [HLA-DRB1_Y112_V114A_YF] | 1.05 | 0.816 | 1 | 0.83 | 0.359 | 0.42 | 0.604 | 0.856 | 0.628 | 0.826 | 0.674 | 0.441 | 0.527 | 0.555 | 0.439 | 0.471
FDDDDYDMDFV [BLM_Y296_T298M] | 0.485 | 0.606 | 0.795 | 0.68 | 0.613 | 0.561 | 0.815 | 0.945 | 1.29 | 1.23 | 0.761 | 0.56 | 0.57 | 0.612 | 0.438 | 0.55
FDKEFYSVHNK [MET_Y1235_YF] | 0.543 | 0.841 | 0.917 | 0.959 | 0.479 | 0.561 | 0.717 | 0.866 | 0.806 | 0.947 | 0.432 | 0.803 | 0.641 | 0.638 | 0.721 | 0.528
FDKPVYQKTTE [LDLR_Y828_N825K] | 0.563 | 0.557 | 0.811 | 0.606 | 0.472 | 0.451 | 0.57 | 0.691 | 0.684 | 0.739 | 0.452 | 0.436 | 0.506 | 0.475 | 0.473 | 0.518
FEDALYTVLHR [UNC13D_Y61_YF] | 0.521 | 0.812 | 0.85 | 5.92 | 9.12 | 11.4 | 2.38 | 1.4 | 2.96 | 1.79 | 16 | 9.35 | 7.03 | 13.8 | 9.68 | 2.49
FEEVVYQAMEE [TACC3_Y684] | 0.504 | 0.883 | 0.755 | 1.62 | 2.12 | 1.21 | 0.955 | 1.35 | 1.86 | 1.54 | 0.838 | 1.74 | 3.34 | 0.737 | 0.744 | 0.621
FENGEYIVRQG [PRKG1_Y247_I249V_YF] | 0.637 | 0.552 | 1.06 | 0.646 | 0.468 | 0.523 | 0.922 | 0.685 | 0.888 | 0.962 | 0.612 | 0.551 | 0.43 | 0.641 | 0.39 | 0.437
FETNVYVDKNL [PTCHD3_Y688_K685T] | 0.693 | 0.656 | 0.968 | 1.01 | 0.54 | 0.482 | 0.623 | 0.53 | 0.996 | 0.938 | 0.546 | 0.578 | 0.36 | 0.539 | 0.411 | 0.436
